The text below walks through data of paper PMC5437702.

A value given as a limit tells only on which side of the number the result lay.

For the assay, the target named is activatory Fc gamma receptor III (FcγRIII), mouse (mouse) (UniProt P08508). Description: SPR.
Chain of UniProt P08508 (P08508 31-261): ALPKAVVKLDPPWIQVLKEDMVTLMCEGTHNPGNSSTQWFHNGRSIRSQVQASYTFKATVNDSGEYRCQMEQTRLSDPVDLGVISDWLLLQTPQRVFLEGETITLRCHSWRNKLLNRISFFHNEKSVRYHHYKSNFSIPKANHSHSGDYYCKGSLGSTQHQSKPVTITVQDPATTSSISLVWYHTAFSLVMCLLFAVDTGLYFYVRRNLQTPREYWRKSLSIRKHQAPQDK

“anti-CD25 clone PC-61 rat IgG1 (αCD25-r1) (antibody)”: the A/I ratio (affinity for activatory FcγRIII against inhibitory FcγRIIb) is less than 1.
